Results reported in article PMC8172134.

Biological target: WIV16 RBD ([change] domain) (bat SARS-like coronavirus WIV16)

## human monoclonal antibody 47D11
  IC50 of neutralization of WIV16-S pseudotyped VSV (luciferase) on VeroE6 cells: 0.165 µg/mL
